Measured values: the DeepSol protein solubility set

Assay: soluble on expression in E. coli; label from the status in PepcDB or PDB records

| Sequence | soluble on expression in E. coli |
| --- | --- |
| MKLYFIINPAAKNGRSVSIWKQLQPLLDREGIAYQAYWTSRKGEGKEIARRIGEESVEPTVIAAVGGDGTVHEVVNGAGSFPHVAIGCIPAGTGNDFVRGFRLARKPKQALQRLLSDVRSGKDLAFDLGRFASSAVPDGVFANSIGCGFDAHIARMANRSKWKGRLNRFGLGSFIYVFYLVRELFRYQPVDLDICVDGQNYSFLKAWLATASNHPYYGGGMRIAPSVRADDGLLHVTVVGPMPRWKILALFLTVFWGGHVRMKEVCVFTGRNVRIRPAAPVLIHADGEDAGEGEVFAWIEPGRLRVIGVKTR | not soluble |
| MSLTKIAKVIVDVPLMQTDKPFSYKIPEALLSVITAGSRVHVPFGKGNRLLQGFVVSVDSGSAQHLKTIIDVLDVEPVLNQEQLELADQMRKTVFSYKISILKSMIPNLLNSNYDRLLKPKKGLSQEEKDLIFAGKKQINFSQLNQEIQTKSLSLIQAGKIDIEYLAKDRKTIKTQKCYDVNLEKLSHLLINKRAKKRQELKDYLANHPQSGPLSDLYRLFSREVVHYFIKEAVLNISQVEVNRTQSYFENIIQSDFLDLNPEQQTAVEQITAAIGSSNKPYLLEGITGSGKTEVYLHVIDQTLKLGKTAIVLVPEISLTPQMTSRFISRFGSQVAIMHSGLSDGEKFDEWRKMKSNQAKVVVGARSAIFSPLKNIGAIIIDEEHEATYKQESSPRYHAREVALLRAQYHQAVLVLGSATPSIESRARASRGVYNFLQLSQRANPQAHIPKVKIVDFRDYIGQQKVSNLTPVLLDKIKDRLIKKEQVVLMLNRRGYSSFIMCRDCGYVDNCPNCDISLTLHMDTKTMNCHYCGFLKGIPYNCPNCQSRQIRYYGTGTQKAYDELKQVLPEARILRMDVDTTKRKGAHEKILTKFGRHEADILLGTQMIAKGLDFPNVTLVGVLNADTSLNLPDFRSSERTFQLLTQVAGRAGRANKPGEVLIQTYNPNHYAIQLAREQDYEAFYRYEMRIRKALSYPPYYFTVGLTLSHKDEQEVIKKSYEIVTLIKEGLTDKIKILGPTPKPVARTHNLYHYQIIIKYRFEDQLEIVLNHILDLTQAKENKKLRLIIDHEPQSEGHHHHHH | soluble |
| GMQTKVINFNDKFSLFNQHWSPRVIAEMNDYQFKLVKVEGEFVWHEHADTDEVFIVMEGTLQIAFRDQNITLQAGEMYVIPKGVEHKPMAKEECKIMIIEPR | soluble |
| MSLNWKQLISAKRFGMEEFHEERQENRSEFQRDYDRLIFSAPFRRLQNKTQVFPLPGSIFVHNRLTHSLEVSCVGRSLGNDVAKAILERQPELESSFLPEIGSIVSAACLAHDLGNPPFGHSGERAISTFFSEGKGQRLQEKQPDGEQLSPMEWEDLTHFEGNANAFRILTHQFEGRRRGGFVLTYSTLASIVKYPFSSSLAGKKSKFGFFVSEEESYRKIATELGLIQLSEQPLKYARHPLVYLVEAADDICYQMMDIEDAHKLKIITTDETKELLMAFFSEDRQSRLRSTFQIVNDINEQIAYLRSSVIGLLVRECTRVFLEHEQEILAGTFEGALIKHIAEGPAAAYNHCAEISLKRIYRSQDVLDIELAGFRIISTLLELMVDAVTLPGKEKAYSELLTNRVSDQYNIKSPVLYERIQAVLDYISGMTDVFALDLYRKINGNSLPAEGHHHHHH | soluble |
| PVKVVVGKTFDAIVMDPKKDVLIEFYAPWCGHCKQLEPIYTSLGKKYKGQKDLVIAKMDATANDITNDQYKVEGFPTIYFAPSGDKKNPIKFEGGNRDLEHLSKFIDEHATKRSRTKEEL | soluble |
| MSLPAPQDPRNLPIRQQMEALIRRKQAEITQGLESIDTVKFHADTWTRGNDGGGGTSMVIQDGTTFEKGGVNVSVVYGQLSPAAVSAMKADHKNLRLPEDPKTGLPVTDGVKFFACGLSMVIHPVNPHAPTTHLNYRYFETWNQDGTPQTWWFGGGADLTPSYLYEEDGQLFHQLHKDALDKHDTALYPRFKKWCDEYFYITHRKETRGIGGIFFDDYDERDPQEILNMVEDCFDAFLPSYLTIVKRRKDMPYTKEEQQWQAIRRGRYVEFNLIYDRGTQFGLRTPGSRVESILMSLPEHASWLYNHHPAPGSREAKLLEVTTKPREWVKEGHHHHHH | soluble |
| MRIEEDLKLGFKDVLIRPKRSTLKSRSDVELERQFTFKHSGQSWSGVPIIAANMDTVGTFSMASALASFDILTAVHKHYSVEEWQAFINNSSADVLKHVMVSTGTSDADFEKTKQILDLNPALNFVCIDVANGYSEHFVQFVAKAREAWPTKTICAGNVVTGEMCEELILSGADIVKVGIGPGSVCTTRVKTGVGYPQLSAVIECADAAHGLGGMIVSDGGCTTPGDVAKAFGGGADFVMLGGMLAGHEESGGRIVEENGEKFMLFYGMSSESAMKRHVGGVAEYRAAEGKTVKLPLRGPVENTARDILGGLRSACTYVGASRLKELTKRTTFIRVQEQENRIFNNL | soluble |
| MGLQELDPLAQLSLPPGFRFYPTDEELMVEYLCRKAAGHDFSLQLIAEIDLYKFDPWVLPSKALFGEKEWYFFSPRDRKYPNGSRPNRVAGSGYWKATGTDKVISTEGRRVGIKKALVFYIGKAPKGTKTNWIMHEYRLIEPSRRNGSTKLDDWVLCRIYKKQTSAQKQAYNNLMTSGREYSNNGSSTSSSSHQYDDVLESLHEIDNRSLGFAAGSSNALPHSHRPVLTNHKTGFQGLAREPSFDWANLIGQNSVPELGLSHNVPSIRYGDGGTQQQTEGIPRFNNNSDVSANQGFSVDPVNGFGYSGQQSSGFGFI | soluble |
| MRILLIEDDMLIGDGIKTGLSKMGFSVDWFTQGRQGKEALYSAPYDAVILDLTLPGMDGRDILREWREKGQREPVLILTARDALAERVEGLRLGADDYLCKPFALIEVAARLEALMRRTNGQASNELRHGNVMLDPGKRIATLAGEPLTLKPKEFALLELLMRNAGRVLSRKLIEEKLYTWDEEVTSNAVEVHVHHLRRKLGSDFIRTVHGIGYTLGEK | soluble |
| MNILQNENLIIESSSFGAELTKIFSKKYDKNILWDGNKKYWGRQSPILFPIVGKLFDNETIIEENLYSMTQHGFARDMDFEIVDKGDTFVTYKLTDNESTLKKYPYSFELIINYTLNDNSIEVEWIVKNTDSKDIFFSIGGHPAFNLPFYKQNDFSKHYLEFKSKNDVEKINLNGSFTDDIIPIGKLKNLQLNPEVFKNDALIYTNIDEVSICNNDGSKYVTISMEDFPLVGIWTPYYSETNSTAPFLCIEPWYGLADSINSNKIYKDKKFINKLSKGKVFTASYNINIHLEHHHHHH | soluble |
| MTLEWEEFLDPYIQAVGELKIKLRGIRKQYRKQNKHSPIEFVTGRVKPIESIKEKMARRGITYATLEHDLQDIAGLRVMVQFVDDVKEVVDILHKRQDMRIIQERDYITHRKASGYRSYHVVVEYTVDTINGAKTILAEIQIRTLAMNFWATIEHSLNYKYQGDFPDEIKKRLEITARIAHQLDEEMGEIRDDIQEAQALFDPLSRKLNDGVGNSDDTDEEYR | soluble |
| MSDRNCYKCQQPGHISRNCPNGESDGGRRGGGGGSTCYNCQETGHFSRDCPKGGSGGGQRGGGGGGGSCYNCGGRGHYSRDCPSARSEGGSGGYGGRGGEGRSFGGQKCYNCGRSGHISRECTESGSAEEKRCYQCQETGHISRDCPSQTN | soluble |
| MELSSEHKALFSLLRAGLWEREPDDLSPFPLTDAQWWNVYRMAVRQTVTGIVCRGLHHLPEALLPGDALMIRWVAETDRIERKNRRMDAVVCLLAQRMGRNGLHPVLLKGQGVAAFYEHPLTRECGDIDLCFLSEEEEREAAELMRRVGCRTEKQPDGSNCYSWQGVEVEHHTRLFDLHNPLLKVYLSALVREHGFTEFRPGGRDGLPEGNQSGEFPATISVPSPLPNLLLLNAHLLKHLLGHGVGLRQFCDMARAYHTLCGSYSPEGLEAVYRRTGLLRWSAQLHTFLTEYLGLHRAELPYADTDACSSPELLRIVLEGGNFGQYGGTKGKASQARWERKLRTFLSFWKHRGFSSAYARKEAFWISVRLIIGNLR | not soluble |
| MSLIQLRPCPKSYTRDQDKATTPAETVRRVRERLASLDISILAETRRVDVGRLGIPVFLSVCGADARAVMPTRKQMGKGASLEQAQASALMELMERYSFFTFWRDMPGMVEATWSEARNRFGDALIPVDEILHSVHDTLSPDDAVRALDLWRWKFFPATDITHGREVWLPLDWFKKLGEFNGSSAGNTEEESILQGSCELVERHVCCLIDRTQPELPTIDPASLDDPVLLELAAAFERNGIRLVLKDFSMGMPVPTVGAIAWDPATFPERSEIVYTAGTSSSPVKAAIRAVTEVAQLAGDFCTGACYEASGLSKYESLDDIAWLVAGPVVALDTLPSVETDDIRDELAALCDGLAATGHTLYSVSTMNPDVGVNTHYNIVPGFHFRERDRNAEGHHHHHH | not soluble |
| MGSDKIHHHHHHMAYRKQLTRLKAPYLKRILLDPGRVEDWEKYPWNLPLFRGREFELEFTAPITIIVGENGTGKSTLLEAIGALAGYDEAGGGKGYMPVDHSRAIDKSGAALADNFRCHWLPKVTAGWFFRAESFYSVARYLDEAARESGATPPDFLSWSHGEGFIRFFEERCRRQGIYILDEPESALSPSRQIELLKMLRRMDQSGTAQVIMATHSPLLMACPGARLFRISRFGLEPADFRDTDHFRMLRDFSNDPDGFLAEALYEDEA | not soluble |
| MSEETIEKFEDNVEHQNQDQPVPEGMSKKQLRRQKYKVKWEEKKLVKRAAERIRKKEKRAALKESGDLSKLRKRKDFRTMAQSNSKQRIALDMSFDDLMIEKDQKRTVQQIGWCYTANRHSPDPFQFHVVGFDGPSRKIYDGNEHNLNQDIHLHQEKLENLFKPEEIVYLTSESENVLSDLDDTKVYVIGGIVDHNSQKGLCYRIAQEKGFGHAKLPLDEHLLMKSRRVLTINQVYEILVHYSVHKNWKDALLSIIPERKNAQLKEEVVEEKPESLEEIGKLDTESTDTATGSPKIN | soluble |
| MLCRNTARTGCKFFRLYHSNPIEHVKPIHIKPLTYGKESPQYKVLSLALQKFVPEHGFSERSIVESLNELGYPSSMISSIGAPNSPSFFHSSTAVMELIKFQLVDKRYRLTEGINPDVTPQYKLPSLEHLLLKRLEMDKPIGGHLSELMSQLAIPSAFLFETAIPELHRLSDDMIYFSNEKDHHDSAWYAKRLAVSSTYIGSKLFMAQDKSHNYKETFTFAKDKLHRVMRLGEYYNNTEEFAWYTLMSTVNLIKSQLVRG | not soluble |
| MNLPPDALHENVYAFALARDQVESYCNQCLTSMAELKKCSACRRLAYCSQECQRADWKLHKVECKAIKTHNEVANDSIRLVMRIAGKLSRNEDGEIEAYYIPGVARNFQNLEHHPSSYDADEESFVKEYFQFAIAPHPDRDLIKLIFQKVSINSFVVGNSTGNPIGVGLCIKLSAANHSCKPLTRVCYRNRTAMLVPVSSELPSTLEGACHSYIDELMPRDMRRDTLKKKYKFLCQCDGCLDEDRNARMEAWTCGICVKGWMRNKENGQCELCGWTMSKDHFELCRTAEEAGIAARSRLANDAIPLETKRNLCEKLLDLFQDTLHDHNVHRIPVLRCLYICSLAAQNITAAAKTGGTLLSIMLVYQNTTDPAILFQKYQLAQLFCAAGAKTQATKLLQEIEEPLEKIYTPDSMICRNVYCMILKARNLS | not soluble |
| MTMTLNELLATNPDGTLEDIAGKYNTSLFAVVEALPTAQCTLATGDRFDQVWDTIATWGEVTLISHTADAILEFKSELPTGTHRHGYFNLRGKNGLSGHIRATSCQHIAFIERKFMGMDTASVVFFNANGAAMFKIFLGRDSHRQLLSAQVDAFRALASELQPEQVLEHHHHHH | soluble |
| MSLKGDHAGKDRLIYKLQQTDSSYRYTNGTQGTAWTLIMENPLKGYGYGDDIYHAIYNKRVVDFPSWKFRQSIGPHNEGHHHHHH | soluble |
| MSLSTSPKPSPIPSPVLGQKPNASQSLLAWCREVTKNYRGVKITNFTTSWRNGLSFCAILHHFRPDLIDYKSLNPQDIKENNKKAYDGFASIGISRLLEPSDMVLLAIPDKLTVMTYLYQIRAHFSGQELNVVQIEENSSKSTYKVGNYETDTNSSVDQEKFYAELSDLKREGHHHHHH | soluble |
